Test system: Escherichia coli TOP10
Test: shrunken log2 fold change of peptide-encoding DNA abundance (4.5 h post-induction vs induction); higher = less antimicrobial activity (less host growth inhibition)
Settings: time post-induction: 4.5 h; library: site-saturation at positions 5, 18, 19, 20
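Further: peptides expressed intracellularly from a pBAD plasmid library in pooled LB shake-flask culture, induced with 0.3% L-arabinose, DNA abundance read by NGS, three biological replicates, DESeq2 with apeglm shrinkage.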

Row | Sequence | shrunken log2 fold change
1 | RRIRDRPPRLPRPRPRPGLVPRP | 0.644
2 | RRIRWRPPRLPRPRPRPYELPRP | -0.0904
3 | RRIRRRPPRLPRPRPRPRLWPRP | 0.273
4 | RRIRIRPPRLPRPRPRPWFGPRP | -0.348
5 | RRIRCRPPRLPRPRPRPQRWPRP | 0.294
6 | RRIRLRPPRLPRPRPRPEAKPRP | 0.0204
7 | RRIRVRPPRLPRPRPRPCFRPRP | -0.164
8 | RRIRWRPPRLPRPRPRPRVKPRP | 0.13
9 | RRIRKRPPRLPRPRPRPWKKPRP | 0.0118
10 | RRIRSRPPRLPRPRPRPVIVPRP | -0.191
11 | RRIRNRPPRLPRPRPRPTSKPRP | -0.0758
12 | RRIRWRPPRLPRPRPRPYAVPRP | 0.0097
13 | RRIRRRPPRLPRPRPRPRGDPRP | 0.393
14 | RRIRHRPPRLPRPRPRPLQPPRP | 0.157
15 | RRIRCRPPRLPRPRPRPDIDPRP | -0.182
16 | RRIRLRPPRLPRPRPRPHAYPRP | -0.392
17 | RRIRPRPPRLPRPRPRPWNAPRP | -0.118
18 | RRIRIRPPRLPRPRPRPQHLPRP | -0.542
19 | RRIRRRPPRLPRPRPRPMIVPRP | 0.00521
20 | RRIRYRPPRLPRPRPRPTGMPRP | 0.0495
21 | RRIRKRPPRLPRPRPRPGINPRP | 0.369
22 | RRIRDRPPRLPRPRPRPTGIPRP | 0.26
23 | RRIRWRPPRLPRPRPRPMTDPRP | 0.0543

Row | Sequence | shrunken log2 fold change
24 | RRIRFRPPRLPRPRPRPHTEPRP | -0.731
25 | RRIRYRPPRLPRPRPRPCHRPRP | -0.169
26 | RRIRARPPRLPRPRPRPTHKPRP | 0.577
27 | RRIRVRPPRLPRPRPRPHDKPRP | -0.123
28 | RRIRFRPPRLPRPRPRPIFPPRP | -0.222
29 | RRIRKRPPRLPRPRPRPLHDPRP | 0.169
30 | RRIRRRPPRLPRPRPRPRFLPRP | 0.15
31 | RRIRIRPPRLPRPRPRPSTIPRP | -0.361
32 | RRIRKRPPRLPRPRPRPVVIPRP | -0.112
33 | RRIRFRPPRLPRPRPRPCRPPRP | 0.0632
34 | RRIRVRPPRLPRPRPRPVNFPRP | 0.02
35 | RRIRCRPPRLPRPRPRPWNSPRP | -0.529
36 | RRIRHRPPRLPRPRPRPVFYPRP | -0.751
37 | RRIRTRPPRLPRPRPRPTAFPRP | 0.13
38 | RRIRVRPPRLPRPRPRPGHYPRP | -0.125
39 | RRIRVRPPRLPRPRPRPENQPRP | -0.008
40 | RRIRERPPRLPRPRPRPHQRPRP | 0.0138
41 | RRIRMRPPRLPRPRPRPVCWPRP | 0.833
42 | RRIRTRPPRLPRPRPRPMRHPRP | 0.00372
43 | RRIRFRPPRLPRPRPRPIVNPRP | 0.00221
44 | RRIRYRPPRLPRPRPRPQRMPRP | -0.74
45 | RRIRGRPPRLPRPRPRPGHPPRP | 0.444
46 | RRIRHRPPRLPRPRPRPHDSPRP | -0.03

Row | Sequence | shrunken log2 fold change
47 | RRIRHRPPRLPRPRPRPIKRPRP | -0.0154
48 | RRIRARPPRLPRPRPRPDWYPRP | -0.213
49 | RRIRYRPPRLPRPRPRPMDWPRP | 0.0155
50 | RRIRSRPPRLPRPRPRPNGCPRP | -0.0491
51 | RRIRQRPPRLPRPRPRPVCYPRP | -0.636
52 | RRIRGRPPRLPRPRPRPDFPPRP | 0.414
53 | RRIRLRPPRLPRPRPRPRHEPRP | 0.055
54 | RRIRIRPPRLPRPRPRPQIHPRP | -0.796
55 | RRIRQRPPRLPRPRPRPVQWPRP | -0.03
56 | RRIRPRPPRLPRPRPRPHIYPRP | -0.576
57 | RRIRTRPPRLPRPRPRPFHKPRP | 0.0244
58 | RRIRHRPPRLPRPRPRPWCTPRP | -0.11
59 | RRIRQRPPRLPRPRPRPPTYPRP | -0.0183
60 | RRIRPRPPRLPRPRPRPITQPRP | -0.194
61 | RRIRTRPPRLPRPRPRPFGWPRP | 0.189
62 | RRIRGRPPRLPRPRPRPCCNPRP | -0.265
63 | RRIRNRPPRLPRPRPRPSVGPRP | -0.0175
64 | RRIRDRPPRLPRPRPRPKIAPRP | -0.0493
65 | RRIRYRPPRLPRPRPRPMDHPRP | -0.237
66 | RRIRARPPRLPRPRPRPPTGPRP | 0.663
67 | RRIRTRPPRLPRPRPRPWRAPRP | 0.21
68 | RRIRTRPPRLPRPRPRPRAFPRP | 0.184
69 | RRIRHRPPRLPRPRPRPFNGPRP | -0.118

Row | Sequence | shrunken log2 fold change
70 | RRIRCRPPRLPRPRPRPVADPRP | 0.181
71 | RRIRARPPRLPRPRPRPCIFPRP | 0.131
72 | RRIRQRPPRLPRPRPRPTQHPRP | 0.195
73 | RRIRTRPPRLPRPRPRPLEFPRP | -0.0903
74 | RRIRYRPPRLPRPRPRPYCLPRP | -1.15
75 | RRIRCRPPRLPRPRPRPIEGPRP | 0.119
76 | RRIRRRPPRLPRPRPRPMWTPRP | -0.132
77 | RRIRYRPPRLPRPRPRPIMHPRP | -0.483
78 | RRIRERPPRLPRPRPRPMYTPRP | -0.469
79 | RRIRVRPPRLPRPRPRPYYVPRP | -1.97
80 | RRIRKRPPRLPRPRPRPVLMPRP | 0.471
81 | RRIRRRPPRLPRPRPRPLPSPRP | 0.752
82 | RRIRSRPPRLPRPRPRPMAKPRP | 0.206
83 | RRIRHRPPRLPRPRPRPHLCPRP | -0.0468
84 | RRIRWRPPRLPRPRPRPIDWPRP | 0.45
85 | RRIRGRPPRLPRPRPRPNAMPRP | 0.988
86 | RRIRQRPPRLPRPRPRPDMTPRP | -0.129
87 | RRIRVRPPRLPRPRPRPRLYPRP | 0.13
88 | RRIRYRPPRLPRPRPRPCIEPRP | -0.0017
89 | RRIRVRPPRLPRPRPRPQHLPRP | -0.117
90 | RRIRVRPPRLPRPRPRPSHFPRP | -0.443
91 | RRIRGRPPRLPRPRPRPGPKPRP | 0.808

Source: the supplement of paper PMC9112550, “Optimization of the antimicrobial peptide Bac7 by deep mutational scanning” (BMC Biology, 2022)
